According to the supplement of paper PMC9170038:

Tested on: MS2 coat protein
Assay: apparent KD of MS2 coat protein; designed switch direction (-1 OFF switch, 1 ON switch): -1; higher = weaker reporter binding
How it was run: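 RNA switches sharing common flanks were transcribed by stalled E. coli RNA polymerase on Illumina chips. A doubling series of SNAP-549-labelled MS2 coat protein, from 0.7 or 1.5 nM to 3 µM, was applied in Tris-HCl pH 7.5 buffer with KCl, MgCl2, BSA, DTT, tRNA and Tween-20. Each step lasted 0.8–1.5 h at the bottom of the series and 10–20 min at the top. Normalised cluster fluorescence was curve-fitted, giving apparent KD as the per-design median over clusters.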

[1] = Eterna round: R95, input ligand: microRNA oligo, concentration not stated
[2] = Eterna round: R95, input ligand: FMN 200 uM
[3] = Eterna round: R95, input ligand: none
[4] = input ligand: microRNA oligo, concentration not stated

| Sequence | apparent KD of MS2 coat protein [1] | apparent KD of MS2 coat protein (input ligand: FMN 200 uM) | apparent KD of MS2 coat protein (input ligand: none) | other results |
| --- | --- | --- | --- | --- |
| GAGUGACAUGAGGAUCACCCAUGUGAGGAUAUCGGACGGACCAAAUUAACAAUAAUUGCGAGAAGGCACAUCGG [Exclusion 1 V14] (puzzle: Exclusion 1) | 52.1 nM |  |  |  |
| GUAGAGUAAGGAUAUGGUGAAUAGGAUAGAAUGGUUAGAAACUAGAAGGUACAUGAGGAUCACCCAUGUAAUGU [Excluse me!!!! 23 - Jieux - Exclusion 4] (puzzle: Exclusion 4) | 20.8 nM |  |  |  |
| GAAAAGGUAGGAUAUACGAAAAAAAAGUGUAGAAAAAAAACACAUGAGGAUCACCCAUGUAGAAGGACCAAAAG [salish99_ex2_r3_069] (puzzle: Exclusion 2) | 34.8 nM |  |  | apparent KD of MS2 coat protein [2]: 27 nM; apparent KD of MS2 coat protein [3]: 32.6 nM |
| GCUGCGCGCUGUCGGGCGUCUGGUCUUGGAGGGAUAGACACAUGAGGAUCACCCAUGUUUCGGGUGUUCUUUCUAUA [JR_Sensorv2_tov2_Sub1512] (Eterna round: R96, puzzle: Sensor v2, turn-off variant 2) |  | 187 nM | 183 nM | apparent KD of MS2 coat protein [4]: 118 nM |
| GCAAGCUUUUUCGUGGGUGACAUGAGGAUCACCCAUGUUUGCCACGUCUUGUGGGCCCGGGCCCGCGGCCCGGGCCC [-44.9, -65.2, A 12%] (Eterna round: R97, puzzle: Sensor, turn-off variant 1) |  | 54.6 nM | 67.6 nM |  |
| CUUUUGGCAGGAUAUGCUUUUUUUGACAUGAGGAUCACCCAUGUGAUGCAGUUUGGGUUUGCAGAAGGGCCUGAGU [JR_E5_Sub035] (puzzle: Exclusion 5) | 101 nM |  |  |  |
| AUACCACGAGGAUAUCGUCUAUAAUACAUGAGGAUCACCCAUGUUAUAUCUGUAAUGUUUCGAGAAGGCGUUUGUU [JR_E5_Sub085] (puzzle: Exclusion 5) | 21.3 nM |  |  |  |
| CCGCAUAAGCAGGAUAUCGUAUCGGAAACGAUACGAGAAGGGUUUACAUGAGGAUCACCCAUGUUCCUUAGCGG [Mat - Exclusion 6 - Eli Mod - D100] (puzzle: Exclusion 6) | 31.5 nM |  |  | apparent KD of MS2 coat protein [2]: 49.9 nM; apparent KD of MS2 coat protein [3]: 32.6 nM |
| GCGCUGUGAGGAUAUUAGUAGUAGAUAAAAUAAACUAUUACUGAGAAGGCACAUGAGGAUCACCCAUGUUGCGC [Eli x4 4.04] (Eterna round: R97, puzzle: Exclusion 4) |  | 24.7 nM | 19.6 nM |  |
| GUAGAGUCAGGAUAUACAAAACCAUCGAAAGAUGGAUCCAUACAUGAGGAUCACCCAUGUAGAAGGGACUCUAC [Eli x2 4.17] (Eterna round: R97, puzzle: Exclusion 2) |  | 21 nM | 17.1 nM |  |
| GUAGAGUAAGGAUAUCGUGAAUAGGAUAGAAUGGUUAGAAACGAGAAGGUACAUGAGGAUCACCCAUGUAAUGU [Excluse me!!!! 17 - Jieux - Exclusion 4] (puzzle: Exclusion 4) | 20.8 nM |  |  |  |
| UUUAUAUAUGAAGGAUAUACUUAACAUGAGGAUCACCCAUGUGGUGUUGUGAGUGAGUGAGUUUAGUAGAAGGUCAAUGAUUUU [JMF's solution 70] (Eterna round: R96, puzzle: Exclusion NG 2) |  | 810 nM | 360 nM | apparent KD of MS2 coat protein [4]: 306 nM |
| GCCGAUUAAGUGAGGAUAUACCUAUGGAUACAUAGGUAGAAGGUACAUGAGGAUCACCCAUGUUCCUUAACGGC [Fiskers BMX 4 - 8] (puzzle: Brourd's mod of Exclusion 4) | 10.4 nM |  |  |  |
| CACUGCAGGUUAGGAUAUGGACAACAACAUGAGGAUCACCCAUGUAUGUAUGAACAUGUUGAUCACCAGAAGGAACACAUCAGU [Exclusion NG 2 S2] (Eterna round: R96, puzzle: Exclusion NG 2) |  | 12.2 nM | 11.8 nM | apparent KD of MS2 coat protein [4]: 9.35 nM |
| ACAUGAGGAUCACCCAUGUUAUGUUGGGUACUAAAUUAUUCGUAGGAUAUCGUAGCUAGUUUGUGCGAGAAGGACGCAGUUUUU [JR_ExcNG3_Sub060] (Eterna round: R96, puzzle: Exclusion NG 3) |  |  |  | apparent KD of MS2 coat protein [4]: 202 nM |
| AUGGGUACUUUCGGAGCGACAUGAGGAUCACCCAUGUAUAUUGAGGAUAUCCACUGCUAAGGACGGGAGAAGGCAGUGUACUGU [Ex NG3 #82] (Eterna round: R96, puzzle: Exclusion NG 3) |  | 73.3 nM | 54.2 nM | apparent KD of MS2 coat protein [4]: 42.9 nM |

| Sequence | apparent KD of MS2 coat protein [1] | apparent KD of MS2 coat protein (input ligand: FMN 200 uM) | apparent KD of MS2 coat protein (input ligand: none) | other results |
| --- | --- | --- | --- | --- |
| UAAUUAAUUAAUAAAUAAUACAUGAGGAUCACCCAUGUAGAUCCUACAUACAAUUUAAGUAGCUCGUCUUAUUAUUA [Sensor-V1 #61] (Eterna round: R97, puzzle: Sensor, turn-off variant 1) |  | 200 nM | 255 nM |  |
| ACGUUGUCAGGAUAUCGUUAAUUUAGUUGUUUGUAUUAGUUCGAGAAGGGACAUGAGGAUCACCCAUGUUUGCA [Ex4 #31] (Eterna round: R97, puzzle: Exclusion 4) |  | 32.7 nM | 26.3 nM |  |
| CCCACAAGCUUUUUGCUCGACAUGAGGAUCACCCAUGUUGAAUGGGUUAGAUGUGUGUGAAACACACACAUCUACCU [-32.5, -55.3 kcal, A 27%] (Eterna round: R97, puzzle: Sensor, turn-off variant 1) |  | 20.3 nM | 18.6 nM |  |
| AGUAACUAUCACGAAAGUGAUAGUUACAACAAGUGAUAAACAUGAGGAUCACCCAUGUCCUCAUUUGCUCGUCUUAU [Sensor 3 - 9] (puzzle: Sensor v3, turn-off variant 2) | 283 nM |  |  | apparent KD of MS2 coat protein [2]: 256 nM; apparent KD of MS2 coat protein [3]: 326 nM |
| UCUUAGUCAGGAUAUACAUGAGGAUCACCCAUGUAAAAUUUUAAUUUAAUUUUAAGGUGUAGAAGGGACCACUU [Ex3 #19] (Eterna round: R97, puzzle: Exclusion 3) |  | 22.2 nM | 29 nM |  |
| UGAGCUACAGGAUAUAUGUGGCGACCGUGAGGUCGAAGGUUACAUGAGGAUCACCCAUGUAGAAGGGUAGUUCU [Mat - Exclusion 2 - JL Mod - D20] (Eterna round: R97, puzzle: Exclusion 2) |  | 311 nM | 284 nM |  |
| GGUGAGCUAGGAUAUGCUUUGGGCUCGCUUUCCUUCGAUUUACUUGAGGAUCACCCAAGUAGAAGGAGCUUGCC [salish99_ex2_r4_035] (Eterna round: R97, puzzle: Exclusion 2) |  | 13.5 nM | 12.9 nM |  |
| UAGAAAGAAGUCAGGAUAUCAUGAGUUGCAGCUCAUGAGAAGGGACAUGAGGAUCACCCAUGUAACACGCCUCU [Eternabot (L2) Solution 62] (Eterna round: R97, puzzle: Brourd's mod of Exclusion 4) |  | 28.9 nM | 24.8 nM |  |
| GACAAAGGAGGAUAUACAAUGUCCUGGUCUAACCCGAUGGCACAUGAGGAUCACCCAUGUAGAAGGCCUUUGCG [Eternabot (L1) Solution 4] (Eterna round: R97, puzzle: Exclusion 2) |  | 39 nM | 17.6 nM |  |
| UAAUUAAUAAGAUCAAUUAAUUAACAUGAGGAUCACCCAUGUGAGGAUAUCAGCUCGUGUAGAGCUGAGAAGGCACAAUAAUUA [ExNG3/17-C3] (Eterna round: R96, puzzle: Exclusion NG 3) |  | 203 nM | 51.9 nM | apparent KD of MS2 coat protein [4]: 38.8 nM |
| AUAUUGUGAGGAUAUGAACUUAGUAUCGAAAGAAACUAAGUUCAGAAGGCACAUGAGGAUCACCCAUGUUUCUC [Long static hairpin v10] (Eterna round: R97, puzzle: Exclusion 4) |  | 566 nM | 63.2 nM |  |
| GGCACACAUGAGGAUCACCCAUGUGAGGAUAUGGUGCGAUCGUCGAAAGACGAUAGCACUAGAAGGCACAUGCC [Eli x1 4.06] (Eterna round: R97, puzzle: Exclusion 1) |  | 28.2 nM | 16.1 nM |  |
| ACAUGAGGAUCACCCAUGUUUUUUGGGUACUCUUGUUUCUGCAAGGAUAUGCAUUAUUUAUGUACGCAGAAGGUGCAUUACGUC [JR_ExcNG3_Sub062] (Eterna round: R96, puzzle: Exclusion NG 3) |  | 696 nM | 962 nM | apparent KD of MS2 coat protein [4]: 692 nM |
| UUGUUAUAUGUAGGAUAUGCGUGUUGUUAUUAGGCAGAAGGACAUGAGGAUCACCCAUGUAUGUUGUUGUUAUAUAUUAUAUAU [Title] (Eterna round: R96, puzzle: Exclusion NG 1) |  | 56.3 nM | 58.8 nM | apparent KD of MS2 coat protein [4]: 28.3 nM |
| GGGUGACAUGAGGAUCACCCAUGUCAGGAUAUGAUACUAUGUACUUCGGUACAUAGUAUCAGAAGGGACAUCCC [Ex1-3: 16] (puzzle: Exclusion 1) | 41.8 nM |  |  |  |
| AUGAGGUUAGGAUAUACAUGAGGAUCACCCAUGUUGAAAGGAUAGAUAAGAAAAGAUAGUAGAAGGAACAAAGA [JR_Exclu3_Sub052] (puzzle: Exclusion 3) | 34.9 nM |  |  | apparent KD of MS2 coat protein [2]: 34.4 nM; apparent KD of MS2 coat protein [3]: 39.2 nM |
